Data on 7 molecules can be found in patent publication US20120171699A1 (Merck KGaA, published 2012).

Assay [1] deals with integrin β1 chain on cells (UniProt P05556). In words: live cell flow cytometry on HT-29, 10 µg/ml antibody; relative to second layer alone.
The target is the same in assay [2]. In words: live cell flow cytometry on A549, 10 µg/ml antibody; relative to second layer alone. A general note: A flow cytometer gives signals particle by particle.
For assay [3] the target is unchanged. In words: live cell flow cytometry on HUVEC, 10 µg/ml antibody; relative to second layer alone.
The target is the same in assay [4]. In words: live cell flow cytometry on M24Met, 10 µg/ml antibody; relative to second layer alone.
The target is the same in assay [5]. In words: live cell flow cytometry on M21, 10 µg/ml antibody; relative to second layer alone.
Assay [6] has the same target. In words: live cell flow cytometry on M21-L, 10 µg/ml antibody; relative to second layer alone.
The target is the same in assay [7]. In words: live cell flow cytometry on M21-Gpiib, 10 µg/ml antibody; relative to second layer alone.
In assay [8] the target is T1, integrin αvβ5 on cells (human, UniProt P06756 31-1048; P18084 24-799).
T1 construct: whole, on cells; Endogenous integrin of live cells (FACS) or of FFPE cells and xenografts (IHC)
In words: live cell flow cytometry on M21, 10 µg/ml antibody; relative to second layer alone.

In assay [9] the target is T1, integrin αvβ5 on cells. In words: live cell flow cytometry on HT-29, 10 µg/ml antibody; relative to second layer alone.
Assay [10] deals with T1, integrin αvβ5 on cells. In words: live cell flow cytometry on A549, 10 µg/ml antibody; relative to second layer alone.
Assay [11] addresses T1, integrin αvβ5 on cells. In words: live cell flow cytometry on M24Met, 10 µg/ml antibody; relative to second layer alone.
In assay [12] the target is T1, integrin αvβ5 on cells. In words: live cell flow cytometry on HUVEC, 10 µg/ml antibody; relative to second layer alone.
Assay [13] concerns the target T2, full length human gpiibiiia purified from platelets (human, UniProt P08514 32-1039; P05106 27-788).
T2 construct: mature; Extracted from outdated human platelets with octylglucoside; also called intact αiibβ3; full length purified platelet gpiibiiia
In words: ELISA, integrin coated at 1 µg/ml, antibody serially diluted. In general terms: ELISA stands for enzyme-linked immunosorbent assay.
Method: (§1) Recombinant integrins (1 μg/ml) were coated on microtiter plates by adsorption (4° C.; 16 h) from coating buffer (150 mM NaCl; 1 mM CaCl₂; 1 mM MgCl₂; 10 μM MnCl₂; 50 mM Tris-Cl; pH 7.5). The plates were washed (wash buffer: 0.5% BSA; 0.05% Tween 20 in PBS), blocked (1 h; 4° C.; 5% BSA in PBS), and incubated with primary antibodies serially diluted in wash buffer (1 h; 37° C.). After washing, secondary detection antibody (goat-anti-rabbit HRP; 1:5000) was added (1 h; 37° C.), followed by washing and detection using tetramethyl-benzidine (100 μg/ml) in citrate-phosphate buffer (pH 5.0), development with sulphuric acid, and reading against a reagent blank at 450 nm.

Assay [14] concerns the target T3, recombinant human integrin αvβ3 extracellular domain (DTM-αvβ3) (human, UniProt P06756 31-992).
T3 construct: extracellular domain; Heterodimer made in High Five insect cells with baculovirus; also called Human αvβ3 ECD
The assay is described as above.
Method: as §1

Assay [15] concerns the target T4, integrin αiibβ3 on M21-gpiib melanoma cells (UniProt P08514 32-1039; P05106 27-788).
T4 construct: whole, on cells
In words: live cell flow cytometry on M21-Gpiib, 10 µg/ml antibody; relative to second layer alone.
Method: (§2) Cells in log growth were harvested using trypsin (0.5 μg/ml)/EDTA (0.2 μg/ml), washed in FACS buffer (PBS plus 0.9 mM CaCl₂; 0.5 mM MgCl₂; 0.5% w/v BSA), and incubated with anti-integrin antibodies (60 min; 4° C.; 10 μg/ml in FACS buffer). […] Cells were analyzed on a FACScan (Becton-Dickinson) and the mean intensity fluorescence (MIF) was normalized to the MIF of the negative control (cells stained with PI and secondary labeled antibody, without primary antibody).
(§3) The RabMabs were assessed in FACS compared to standard well characterized murine monoclonal antibodies.

Assay [16] deals with T5, integrin αvβ3 on cells (human, UniProt P06756 31-1048; P05106 27-788).
T5 construct: whole, on cells; Endogenous integrin of live cells (FACS) or of formalin fixed paraffin embedded cells and xenografts (IHC); the cell line is named under assay; also called αvβ3 complex
In words: live cell flow cytometry on M21, 10 µg/ml antibody; relative to second layer alone.
Method: as §2, §3

Assay [17] deals with T5, integrin αvβ3 on cells. In words: live cell flow cytometry on M24Met, 10 µg/ml antibody; relative to second layer alone.
Method: as §2, §3
The target of assay [18] is T5, integrin αvβ3 on cells. In words: live cell flow cytometry on HUVEC, 10 µg/ml antibody; relative to second layer alone.
Method: as §2, §3
The target in assay [19] is T6, recombinant human integrin αvβ5 extracellular domain (DTM-αvβ5) (human, UniProt P06756 31-992).
T6 construct: extracellular domain; Heterodimer made in High Five insect cells; also called Human αvβ5 ECD
In words: ELISA, integrin coated at 1 µg/ml, antibody serially diluted.
Method: as §1

The target of assay [20] is T2, full length human gpiibiiia purified …. In words: ELISA, integrin coated at 1 µg/ml.
Method: as §1
Assay [21] deals with T3, recombinant human integrin αvβ3 …. In words: ELISA, integrin coated at 1 µg/ml.
Method: as §1
Assay [22] concerns the target T6, recombinant human integrin αvβ5 …. In words: ELISA, hybridoma supernatants on the recombinant αvβ5 extracellular domain (FIG. 10).
Assay [23] deals with T3, recombinant human integrin αvβ3 …. In words: ELISA, hybridoma supernatants on recombinant αvβ3 against αvβ5 extracellular domains (FIG. 10).
Assay [24] concerns the target T7, integrin αv chain on cells (human, UniProt P06756 31-1048).
T7 construct: whole, on cells; Endogenous αv of live cells (FACS) or FFPE cells and xenografts (IHC); also called Human αv; αv-integrin
In words: live cell flow cytometry on M21, 10 µg/ml antibody; relative to second layer alone.
Method: as §2, §3

The target in assay [25] is T7, integrin αv chain on cells. In words: live cell flow cytometry on M24Met, 10 µg/ml antibody; relative to second layer alone.
Method: as §2, §3
In assay [26] the target is T8, recombinant human integrin αvβ8 extracellular domain (DTM-αvβ8) (human, UniProt P06756 31-992).
T8 construct: extracellular domain; Heterodimer made in High Five insect cells; also called Human αvβ8 ECD
In words: ELISA, integrin coated at 1 µg/ml, antibody serially diluted.

Assay [27] deals with recombinant human integrin αvβ6 extracellular domain (DTM-αvβ6) (human) (UniProt P18564). Described as above.
The target in assay [28] is T4, integrin αiibβ3 on M21-gpiib melanoma …. In words: live cell flow cytometry on M21-gpiib melanoma cells.
Method: as §2, §3
The target in assay [29] is T7, integrin αv chain on cells. In words: live cell flow cytometry on HUVEC, 10 µg/ml antibody; relative to second layer alone.
Method: as §2, §3

What is called IC50 is the concentration that inhibits the measured activity by half. In general, EC50 refers to the midpoint of the concentration-response curve.

integrin β1 chain on cells, sequence (P05556 21-798 limits assumed): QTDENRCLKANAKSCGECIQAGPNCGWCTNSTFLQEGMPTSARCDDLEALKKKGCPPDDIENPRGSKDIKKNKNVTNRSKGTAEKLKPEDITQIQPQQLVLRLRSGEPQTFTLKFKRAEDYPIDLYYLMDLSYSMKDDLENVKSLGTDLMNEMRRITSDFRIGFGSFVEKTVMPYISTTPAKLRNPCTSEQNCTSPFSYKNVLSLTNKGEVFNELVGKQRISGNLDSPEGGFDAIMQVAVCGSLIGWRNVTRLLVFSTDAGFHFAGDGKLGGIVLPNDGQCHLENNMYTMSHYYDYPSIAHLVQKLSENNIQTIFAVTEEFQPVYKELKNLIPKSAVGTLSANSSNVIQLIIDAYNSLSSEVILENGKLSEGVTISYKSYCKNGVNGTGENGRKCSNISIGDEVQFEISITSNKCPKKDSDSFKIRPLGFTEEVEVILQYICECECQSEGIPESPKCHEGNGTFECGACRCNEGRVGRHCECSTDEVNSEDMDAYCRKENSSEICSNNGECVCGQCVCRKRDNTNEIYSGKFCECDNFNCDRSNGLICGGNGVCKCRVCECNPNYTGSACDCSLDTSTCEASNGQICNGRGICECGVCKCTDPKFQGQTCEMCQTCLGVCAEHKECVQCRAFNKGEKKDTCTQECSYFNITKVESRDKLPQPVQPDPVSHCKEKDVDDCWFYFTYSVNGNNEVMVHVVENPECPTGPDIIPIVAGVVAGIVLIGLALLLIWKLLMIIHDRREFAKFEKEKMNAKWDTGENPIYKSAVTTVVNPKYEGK

P4C10 (antibody): the rMIF in [1] turned out to be 14.5; in assay [2], 7.5; in assay [3], 38.9; in assay [4] it was 14; in assay [5], 7.2; in assay [6] it was 12.1. For the same molecule, the rMIF in assay [7] was determined as 10.8.

Turning to P1F6 (antibody), the rMIF in the assay with integrin αvβ5 on cells [8] was found to be 3.8; with integrin αvβ5 on cells [9], 3.2; in the assay with integrin αvβ5 on cells [10] it was 3.6; with integrin αvβ5 on cells [11] it was 3.8; with integrin αvβ5 on cells [12], 2.7.

B1: EM22703 (antibody, V domains shown)
VH: QSVKESEGGLFKPTDTLILTCTVSGFSLSSYGVSWVRQAPGNGLEYIGSISTTGITYYASWAKSRSTITRNTNLYTVTLKMTGLTAADTATYFCARGFPGHLRKPSDIWGPGTLVTVSA
VL: AQVLTQTPSSVSAAVGGTVSISCQSSESVYADIALSWFQQKPGQPPKLLIYGASTLASGVPSRFSGSGSGTEFTLTISDVQCDAAATYYCAGDYGAGTEPNLFGGGTEVVVSG
notes: Rabbit monoclonal; Hybridoma and recombinant forms are kept as one molecule
In the case of B1, the results for the half-inhibitory concentration (IC50) in assay [13] and in [14] were 0.85 ng/mL and 1.4 ng/mL, respectively. The rMIF in assay [15] turned out to be 56; in the assay with integrin αvβ3 on cells [16] it was 17.6; with integrin αvβ3 on cells [17], 8.1; with integrin αvβ3 on cells [18], 12.4.

B2: LM609 (antibody, V domains shown)
VH: EVQLVESGGGLVKPGRSLRLSCAASGFAFSSYDMSWVRQIPEKRLEWVAKVSSGGGSTYYLDTVQGRFTISRDNAKNTLYLQMSSLNSEDTAMYYCARHNYGSFAYWGQGTLVTVSA
VL: DIVLTQSPATLSVTPGDSVSLSCQASQSISNHLHWYQQKSHESPRLLIKYRSQSISGIPSRFSGSGSGTDFALSINSVETEDFGMYFCQQSGSWPHTFGGGTKLEIK
As to B2, the values for the rMIF with integrin αvβ3 on cells [16], with integrin αvβ3 on cells [17] and with integrin αvβ3 on cells [18] were 9.1, 4.9 and 10.7, respectively.

B3: EM09902 (antibody, V domains shown)
VH: QEQLEESGGGLVQPEGSLTLTCTVSGFPLRNVWISWVRQAPGKGLEWIGCIYTGRDWPYYASWAKGRFTISKSSSTTVTLQMTSLTATDTATYFCARIVYGGAGYRLWGPGTLVTVSS
VL: ALVMTQTPPSVEAAVGGTVTINCQASQDIGSDLAWYQQKPGQPPKLLIYSASSLASGVPSRFKASGSGTQFTLTISDVQCDDAATYSCAGYKSYSDDGHGFGGGTEVVVKG
notes: Rabbit monoclonal; Hybridoma and recombinant forms are kept as one molecule; also called E3536-99-1; E3536-99-2
As for B3, the results for the half-inhibitory concentration (IC50) in assay [13], in [14] and in assay [19] were around 400 ng/mL, around 450 ng/mL and 5.6 ng/mL, respectively. Moreover, the “cross-reactivity, fold in IC50 against the immunogen” value in [20] and in assay [21] was around 100 fold throughout. The rMIF in assay [15] is 1.9; in the assay with integrin αvβ5 on cells [8], 7.2; with integrin αvβ5 on cells [11] it was 40.1; with integrin αvβ5 on cells [12], 33.9. In addition, the EC50 in assay [22] came out at 50 pM. Besides, in assay [23], the “factor in apparent Kd, αvβ5 over αvβ3” value was above 100 fold.

B4: 17E6 (antibody, V domains shown)
VH: QVQLQQSGAELAEPGASVKMSCKASGYTFSSFWMHWVKQRPGQGLEWIGYINPRSGYTECNEIFRDKATMTADTSSSTAYMQLSGLTSEDSAVYYCASFLGRGAMDYWGQGTSVTVSS
VL: DIQMTQTTSSLSASLGDRVIISCRASQDISNYLSWYQQKPDGTVKLLIFYTSKLHSGVPSRFSGSGSGTDYSLTISNLDQEDIATYFCQQGNTFPYTFGGGTKVEMR
For the molecule B4, the rMIF was found to be 9.3 in [24] and 7.8 in [25].

B5: EM01309 (antibody, V domains shown)
VH: QSVEESGGRLVTPGTSLTLTCTVSGIDLTSNSLSWVRQAPGKGLEWIGAISSRATTYFAAWAKGRFTISRTSTTVDLRITSLTASDTATYFCGKFNLWGQGTLVTVSS
VL: AQVLTQTPSSVSAAVGGTVTINCQASQSVASNNALAWFQQKPGQPPKLLIYYASTLASGVPSRFKGSGSGTQFTLTISDLECADAATYYCLGGYDCRGTDCNVFGGGTEVVVKG
notes: Rabbit IgG monoclonal; Hybridoma and recombinant forms are kept as one molecule; also called E3875-013-9; E3875-13-9
As for B5, the 50% inhibitory concentration (IC50) in assay [26] was determined as 4.1 ng/mL; in [14] it was 4.7 ng/mL; in [19], 5.6 ng/mL; in assay [27] it was 4.9 ng/mL. For the same molecule, the rMIF is 1 in assay [15], 1.3 in [24], 2.5 in assay [25] and 28.8 in [29]. In assay [28], the binding result is given as “no binding (tested: 10 µg/ml)”.
